Reference: paper doi:10.1101/2020.02.01.930206 (bioRxiv, 2020)

Assays:
[1] = target: full-length human CIA targeting complex (MMS19-CIAO1-CIAO2B) (human, UniProt Q96T76;O76071;Q9Y3D0); experiment: ITC
[2] = target: human MMS19^381-1030-CIAO1-CIAO2B complex (human, UniProt Q96T76;O76071;Q9Y3D0); experiment: ITC
[3] = target: human CIAO1-CIAO2B core complex (human, UniProt O76071;Q9Y3D0); experiment: ITC
[4] = target: the molecule itself; experiment: negative-stain electron microscopy
[5] = target: T1, Drosophila melanogaster CIAO1 (Drosophila melanogaster, UniProt Q7K1Y4 1-335); experiment: crystal structure
T1 sequence: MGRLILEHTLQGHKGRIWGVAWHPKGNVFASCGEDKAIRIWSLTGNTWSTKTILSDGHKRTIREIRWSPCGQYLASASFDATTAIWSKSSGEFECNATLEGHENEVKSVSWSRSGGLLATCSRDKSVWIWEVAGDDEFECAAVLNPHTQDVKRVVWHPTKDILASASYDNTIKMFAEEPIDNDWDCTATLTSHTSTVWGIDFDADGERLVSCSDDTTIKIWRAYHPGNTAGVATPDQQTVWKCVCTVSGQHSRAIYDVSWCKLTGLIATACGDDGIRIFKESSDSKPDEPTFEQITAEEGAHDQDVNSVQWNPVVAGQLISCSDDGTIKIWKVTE

[6] = target: T2, full-length mouse MMS19 (mouse, UniProt Q9D071 1-1031); experiment: crystal structure
T2 sequence: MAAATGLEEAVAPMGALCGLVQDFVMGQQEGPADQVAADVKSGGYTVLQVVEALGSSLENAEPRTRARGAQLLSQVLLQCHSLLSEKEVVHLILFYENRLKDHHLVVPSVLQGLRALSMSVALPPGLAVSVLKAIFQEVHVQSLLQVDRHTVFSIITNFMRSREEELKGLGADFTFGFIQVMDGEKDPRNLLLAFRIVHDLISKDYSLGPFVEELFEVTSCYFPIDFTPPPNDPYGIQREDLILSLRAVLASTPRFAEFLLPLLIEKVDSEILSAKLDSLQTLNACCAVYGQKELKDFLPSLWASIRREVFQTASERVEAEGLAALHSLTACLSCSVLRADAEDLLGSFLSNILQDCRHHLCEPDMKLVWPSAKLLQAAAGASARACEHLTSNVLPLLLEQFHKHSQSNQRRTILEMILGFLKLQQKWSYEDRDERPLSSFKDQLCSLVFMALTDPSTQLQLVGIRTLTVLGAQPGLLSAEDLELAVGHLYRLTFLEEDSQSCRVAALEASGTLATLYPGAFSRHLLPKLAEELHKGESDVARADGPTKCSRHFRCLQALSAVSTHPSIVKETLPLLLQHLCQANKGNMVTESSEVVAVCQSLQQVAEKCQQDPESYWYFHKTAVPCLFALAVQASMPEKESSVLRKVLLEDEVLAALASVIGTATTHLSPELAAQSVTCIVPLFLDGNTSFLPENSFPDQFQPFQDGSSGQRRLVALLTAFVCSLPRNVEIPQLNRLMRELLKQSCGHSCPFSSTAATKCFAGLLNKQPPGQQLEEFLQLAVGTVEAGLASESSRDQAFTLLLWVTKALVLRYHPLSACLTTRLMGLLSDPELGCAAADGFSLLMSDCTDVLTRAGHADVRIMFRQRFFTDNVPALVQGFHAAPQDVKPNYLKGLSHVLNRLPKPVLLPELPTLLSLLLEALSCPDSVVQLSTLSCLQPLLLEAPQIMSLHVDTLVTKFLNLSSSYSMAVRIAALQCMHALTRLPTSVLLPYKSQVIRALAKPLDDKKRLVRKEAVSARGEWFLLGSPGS

[7] = target: the molecule itself; experiment: crystal structure

Sequence of human CIAO1-CIAO2B core complex (O76071 whole entry, one chain of several): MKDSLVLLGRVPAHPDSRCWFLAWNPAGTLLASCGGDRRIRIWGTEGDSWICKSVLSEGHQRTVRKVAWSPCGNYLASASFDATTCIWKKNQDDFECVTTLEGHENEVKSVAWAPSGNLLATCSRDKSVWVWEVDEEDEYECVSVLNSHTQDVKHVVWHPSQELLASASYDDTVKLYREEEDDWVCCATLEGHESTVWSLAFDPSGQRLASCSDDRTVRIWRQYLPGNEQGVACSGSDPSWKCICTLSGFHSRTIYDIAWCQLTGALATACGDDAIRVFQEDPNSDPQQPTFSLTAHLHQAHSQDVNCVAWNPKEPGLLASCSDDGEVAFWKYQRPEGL
Sequence of full-length human CIA targeting complex (MMS19-CIAO1-CIAO2B) (O76071 whole entry, one chain of several): as above
Sequence of human MMS19^381-1030-CIAO1-CIAO2B complex (O76071 whole entry, one chain of several): as above

B1: human primase (PriL-PriS heterodimer) (complex)
chain 1: MEFSGRKWRKLRLAGDQRNASYPHCLQFYLQPPSENISLIEFENLAIDRVKLLKSVENLGVSYVKGTEQYQSKLESELRKLKFSYRENLEDEYEPRRRDHISHFILRLAYCQSEELRRWFIQQEMDLLRFRFSILPKDKIQDFLKDSQLQFEAISDEEKTLREQEIVASSPSLSGLKLGFESIYKIPFADALDLFRGRKVYLEDGFAYVPLKDIVAIILNEFRAKLSKALALTARSLPAVQSDERLQPLLNHLSHSYTGQDYSTQGNVGKISLDQIDLLSTKSFPPCMRQLHKALRENHHLRHGGRMQYGLFLKGIGLTLEQALQFWKQEFIKGKMDPDKFDKGYSYNIRHSFGKEGKRTDYTPFSCLKIILSNPPSQGDYHGCPFRHSDPELLKQKLQSYKISPGGISQILDLVKGTHYQVACQKYFEMIHNVDDCGFSLNHPNQFFCESQRILNGGKDIKKEPIQPETPQPKPSVQKTKDASSALASLNSSLEMDMEGLEDYFSEDS
chain 2: METFDPTELPELLKLYYRRLFPYSQYYRWLNYGGVIKNYFQHREFSFTLKDDIYIRYQSFNNQSDLEKEMQKMNPYKIDIGAVYSHRPNQHNTVKLGAFQAQEKELVFDIDMTDYDDVRRCCSSADICPKCWTLMTMAIRIIDRALKEDFGFKHRLWVYSGRRGVHCWVCDESVRKLSSAVRSGIVEYLSLVKGGQDVKKKVHLSEKIHPFIRKSINIIKKYFEEYALVNQDILENKESWDKILALVPETIHDELQQSFQKSHNSLQRWEHLKKVASRYQNNIKNDKYGPWLEWEIMLQYCFPRLDINVSKGINHLLKSPFSVHPKTGRISVPIDLQKVDQFDPFTVPTISFICRELDAISTNEEEKEENEAESDVKHRTRDYKKTSLAPYVKVFEHFLENLDKSRKGELLKKSDLQKDF
Work on B1 yielded a Kd [1] of 35 nM and a Kd [2] of 508 nM.

B2: human primase small subunit PriS (natural protein)
chain: B1 chain 2
B2 was tested, and the Kd [3] was 3100 nM.

B3: all-mouse CIA targeting complex (MmMMS19-MmCIAO1-CIAO2B) (complex)
chain 1: T2 sequence
chain 2: not shown
chain 3: MVGGGGSGGGLLENANPLIYERSGERPVTAGEEDEEVPDSIDAREIFDLIRSINDPEHPLTLEELNVVEQVRIQVSDPESTVAVAFTPTIPHCSMATLIGLSIKVKLLRSLPQRFKMDVHITPGTHASEHAVNKQLADKERVAAALENTHLLEVVNQCLSARS
B3: binds [4].

B4: Drosophila melanogaster CIAO2B (natural protein)
chain: MPTEIENINPNVYDRIKERVLTANEEDENVPDPFDKREIFDLIRNINDPEHPLTLEELHVVQEDLIRINDSQNSVHISFTPTIPHCSMATLIGLSIRVKLLRSLPPRFKVTVEITPGTHASELAVNKQLADKERVAAALENNHLAEVINQCIAAKG
B4: binds [5]; binds [6]; binds [7].

B5: Drosophila melanogaster CIAO1-CIAO2B core complex (complex)
chain 1: T1 sequence
chain 2: B4 chain
B5: binds [6].
